Data taken from publication PMC3061051 (Nucleic Acids Research, 2010).
Several values for one entry are separate records, joined by “and”; a condition that tells them apart may be missing. Equal values may be shown once.

Key:
AUC [1] = target: the molecule itself; assay: AUC
W227A-F231A-RECQ1T1 = W227A-F231A-RECQ1T1 (human, UniProt P46063 49-616, W227A;F231A); assay: EMSA
RECQ1T1 (RECQ1 49-616) = RECQ1T1 (RECQ1 49-616) (human, UniProt P46063 49-616); assay: EMSA
AUC [2] = target: the molecule itself; assay: AUC; remark: listed apart in the source
SEC = target: the molecule itself; assay: SEC

B1: Δ8-Y564A-RECQ1^FL (natural protein, human, UniProt P46063 1-649, looked up)
chain: MASVSALTEELDSITSELHAVEIQIQELTERQQELIQKKKVLTKKIKQCLEDSDAGASNEYDSSPAAWNKEDFPWSGKVKDILQNVFKLEKFRPLQLETINVTMAGKEVFLVMPTGGGKSLCYQLPALCSDGFTLVICPLISLMEDQLMVLKQLGISATMLNASSSKEHVKWVHAEMVNKNSELKLIYVTPEKIAKSKMFMSRLEKAYEARRFTRIAVDEVHCCSQWGHDFRPDYKALGILKRQFPNASLIGLTATATNHVLTDAQKILCIEKCFTFTASFNRPNLYYEVRQKPSNTEDFIEDIVKLINGRYKGQSGIIYCFSQKDSEQVTVSLQNLGIHAGAYHANLEPEDKTTVHRKWSANEIQVVVATVAFGMGIDKPDVRFVIHHSMSKSMENYYQESGRAGRDDMKADCILYYGFGDIFRISSMVVMENVGQQKLYEMVSYCQNISKCRRVLMAQHFDEVWNSEACNKMCDNCCKDSAFERKNITEYCRDLIKILKQAEELNEKLTPLKLIDSWMGKGAAKLRVAGVVAPTLPREDLEKIIAHFLIQQYAAGPKANLLNNEAHAITMQVTKSTQNSFRAESSQTCHSEQGDKKMEEKNSGNFQKKAANMLQQSGSKNTGAKKRKIDDA
AUC [1]
  stoichiometry N: 2

B2: Full-length RECQ1 (RECQ1^FL) (natural protein, human, UniProt P46063 1-649, looked up)
chain: MASVSALTEELDSITSELHAVEIQIQELTERQQELIQKKKVLTKKIKQCLEDSDAGASNEYDSSPAAWNKEDFPWSGKVKDILQNVFKLEKFRPLQLETINVTMAGKEVFLVMPTGGGKSLCYQLPALCSDGFTLVICPLISLMEDQLMVLKQLGISATMLNASSSKEHVKWVHAEMVNKNSELKLIYVTPEKIAKSKMFMSRLEKAYEARRFTRIAVDEVHCCSQWGHDFRPDYKALGILKRQFPNASLIGLTATATNHVLTDAQKILCIEKCFTFTASFNRPNLYYEVRQKPSNTEDFIEDIVKLINGRYKGQSGIIYCFSQKDSEQVTVSLQNLGIHAGAYHANLEPEDKTTVHRKWSANEIQVVVATVAFGMGIDKPDVRFVIHHSMSKSMENYYQESGRAGRDDMKADCILYYGFGDIFRISSMVVMENVGQQKLYEMVSYCQNISKCRRVLMAQHFDEVWNSEACNKMCDNCCKDSAFERKNITEYCRDLIKILKQAEELNEKLTPLKLIDSWMGKGAAKLRVAGVVAPTLPREDLEKIIAHFLIQQYLKEDYSFTAYATISYLKIGPKANLLNNEAHAITMQVTKSTQNSFRAESSQTCHSEQGDKKMEEKNSGNFQKKAANMLQQSGSKNTGAKKRKIDDA
AUC [1]
  stoichiometry N: 4 and 2

B3: Y564A-RECQ1^FL (natural protein, human, UniProt P46063 1-649, looked up)
chain: MASVSALTEELDSITSELHAVEIQIQELTERQQELIQKKKVLTKKIKQCLEDSDAGASNEYDSSPAAWNKEDFPWSGKVKDILQNVFKLEKFRPLQLETINVTMAGKEVFLVMPTGGGKSLCYQLPALCSDGFTLVICPLISLMEDQLMVLKQLGISATMLNASSSKEHVKWVHAEMVNKNSELKLIYVTPEKIAKSKMFMSRLEKAYEARRFTRIAVDEVHCCSQWGHDFRPDYKALGILKRQFPNASLIGLTATATNHVLTDAQKILCIEKCFTFTASFNRPNLYYEVRQKPSNTEDFIEDIVKLINGRYKGQSGIIYCFSQKDSEQVTVSLQNLGIHAGAYHANLEPEDKTTVHRKWSANEIQVVVATVAFGMGIDKPDVRFVIHHSMSKSMENYYQESGRAGRDDMKADCILYYGFGDIFRISSMVVMENVGQQKLYEMVSYCQNISKCRRVLMAQHFDEVWNSEACNKMCDNCCKDSAFERKNITEYCRDLIKILKQAEELNEKLTPLKLIDSWMGKGAAKLRVAGVVAPTLPREDLEKIIAHFLIQQYLKEDYSFTAAATISYLKIGPKANLLNNEAHAITMQVTKSTQNSFRAESSQTCHSEQGDKKMEEKNSGNFQKKAANMLQQSGSKNTGAKKRKIDDA
AUC [1]
  stoichiometry N: 2 and 4

B4: Fork 20 duplex (dsDNA)
DNA 1: GAACGAACACATCGGGTACGTTTTTTTTTTTTTTTTTTTTTTTTTTTTTT
DNA 2: TTTTTTTTTTTTTTTTTTTTTTTTTTTTTTCGTACCCGATGTGTTCGTTC
W227A-F231A-RECQ1T1
  Kd: 10 ± 2 nM
RECQ1T1 (RECQ1 49-616)
  Kd: 8 ± 2 nM

B5: RECQ1^49-616 (truncated catalytic core of human RECQ1 helicase) (domain or fragment, UniProt P46063 49-616, looked up)
chain: CLEDSDAGASNEYDSSPAAWNKEDFPWSGKVKDILQNVFKLEKFRPLQLETINVTMAGKEVFLVMPTGGGKSLCYQLPALCSDGFTLVICPLISLMEDQLMVLKQLGISATMLNASSSKEHVKWVHAEMVNKNSELKLIYVTPEKIAKSKMFMSRLEKAYEARRFTRIAVDEVHCCSQWGHDFRPDYKALGILKRQFPNASLIGLTATATNHVLTDAQKILCIEKCFTFTASFNRPNLYYEVRQKPSNTEDFIEDIVKLINGRYKGQSGIIYCFSQKDSEQVTVSLQNLGIHAGAYHANLEPEDKTTVHRKWSANEIQVVVATVAFGMGIDKPDVRFVIHHSMSKSMENYYQESGRAGRDDMKADCILYYGFGDIFRISSMVVMENVGQQKLYEMVSYCQNISKCRRVLMAQHFDEVWNSEACNKMCDNCCKDSAFERKNITEYCRDLIKILKQAEELNEKLTPLKLIDSWMGKGAAKLRVAGVVAPTLPREDLEKIIAHFLIQQYLKEDYSFTAYATISYLKIGPKANLLNNEAHAITMQVTKSTQNSFRAESSQTCHSEQGDKKME
AUC [2]
  stoichiometry N: 2

B6: W227A-F231A-RECQ1^T1 (domain or fragment, human, UniProt P46063 49-616, looked up)
chain: CLEDSDAGASNEYDSSPAAWNKEDFPWSGKVKDILQNVFKLEKFRPLQLETINVTMAGKEVFLVMPTGGGKSLCYQLPALCSDGFTLVICPLISLMEDQLMVLKQLGISATMLNASSSKEHVKWVHAEMVNKNSELKLIYVTPEKIAKSKMFMSRLEKAYEARRFTRIAVDEVHCCSQAGHDARPDYKALGILKRQFPNASLIGLTATATNHVLTDAQKILCIEKCFTFTASFNRPNLYYEVRQKPSNTEDFIEDIVKLINGRYKGQSGIIYCFSQKDSEQVTVSLQNLGIHAGAYHANLEPEDKTTVHRKWSANEIQVVVATVAFGMGIDKPDVRFVIHHSMSKSMENYYQESGRAGRDDMKADCILYYGFGDIFRISSMVVMENVGQQKLYEMVSYCQNISKCRRVLMAQHFDEVWNSEACNKMCDNCCKDSAFERKNITEYCRDLIKILKQAEELNEKLTPLKLIDSWMGKGAAKLRVAGVVAPTLPREDLEKIIAHFLIQQYLKEDYSFTAYATISYLKIGPKANLLNNEAHAITMQVTKSTQNSFRAESSQTCHSEQGDKKME
SEC
  stoichiometry N: 2

B7: Y564A-RECQ1^T1 (domain or fragment, human, UniProt P46063 49-616, looked up)
chain: CLEDSDAGASNEYDSSPAAWNKEDFPWSGKVKDILQNVFKLEKFRPLQLETINVTMAGKEVFLVMPTGGGKSLCYQLPALCSDGFTLVICPLISLMEDQLMVLKQLGISATMLNASSSKEHVKWVHAEMVNKNSELKLIYVTPEKIAKSKMFMSRLEKAYEARRFTRIAVDEVHCCSQWGHDFRPDYKALGILKRQFPNASLIGLTATATNHVLTDAQKILCIEKCFTFTASFNRPNLYYEVRQKPSNTEDFIEDIVKLINGRYKGQSGIIYCFSQKDSEQVTVSLQNLGIHAGAYHANLEPEDKTTVHRKWSANEIQVVVATVAFGMGIDKPDVRFVIHHSMSKSMENYYQESGRAGRDDMKADCILYYGFGDIFRISSMVVMENVGQQKLYEMVSYCQNISKCRRVLMAQHFDEVWNSEACNKMCDNCCKDSAFERKNITEYCRDLIKILKQAEELNEKLTPLKLIDSWMGKGAAKLRVAGVVAPTLPREDLEKIIAHFLIQQYLKEDYSFTAAATISYLKIGPKANLLNNEAHAITMQVTKSTQNSFRAESSQTCHSEQGDKKME
SEC
  stoichiometry N: 2
